According to US20220257766A1, “SSTR-TARGETED CONJUGATES AND FORMULATIONS THEREOF” (TVA (ABC), LLC, priority 2019, published 2022):

Legend:
[1] = Pharmacokinetics of Conjugate 57 in patients; type: in vivo, human
Procedure: (§1) In previous clincial studies, Conjugate 57 was administered via IV on an every 3 week cycle ([…]). The dose of Conjugate 57 may be 1.0 mg, 2.0 mg, 4.0 mg, 8 mg, 12 mg, 15 mg or MTD, which has been determined to be 18 mg. […] BSA (meters squared), as used herein, can be calculated as the following: the square root of patient height in centimeters times patient weight in kilograms divided by 3600. As shown in FIG. 1A and FIG. 1B, a trend was evident between dose normalized exposure (AUC0-8 and Cmax) vs BSA for Conjugate 57. […] The majority of toxicity observed was at dose levels greater than 8.8 mg/m^2. Based on these unexpected results, that starting dose of Conjuate 57 for patients was changed from 15 mg to 8.8 mg/m^2 or less than 8.8 mg/m^2. Patients received dose levels such as 8.8 mg/m^2, 8.75 mg/m^2, 8.6 mg/m^2, 8.4 mg/m^2, 8.3 mg/m^2, 7.9 mg/m^2, 7.5 mg/m^2, and 6.7 mg/m2.

[2] = Clinical studies of Conjugate 57 given IV: dose level, benefit and toxicity; type: in vivo, human
Procedure: as §1
The risk of over exposure of high Cmax levels in smaller pateints (<1.6 m^2) was reduced. The risk of early discontinuation due to intolerability was reduced and the duration of theray was increased.

[3] = Buffer screening for solution stability of Conjugate 57; type: physicochemical; conditions: acetate buffer at pH range of 4.0 to 4.8, compared with citrate and phosphate buffers
Description: Conjugate 57 is a free flowing powder. Previusly studies have found the stability of Conjugate 57 is dependent on the pH of the solution.

[4] = human, in vivo, intravenous, in a patient
[5] = patients, dose per body surface area

Compound: COc1cc2cc(c1Cl)N(C)C(=O)C[C@H](OC(=O)[C@H](C)N(C)C(=O)CCSSC[C@H](NC(=O)[C@@H]1CSSC[C@H](NC(=O)[C@H](N)Cc3ccccc3)C(=O)N[C@@H](Cc3ccc(O)cc3)C(=O)N[C@H](Cc3c[nH]c4ccccc34)C(=O)N[C@@H](CCCCN)C(=O)N[C@@H]([C@@H](C)O)C(=O)N1)C(N)=O)[C@]1(C)O[C@H]1[C@H](C)[C@@H]1C[C@@](O)(NC(=O)O1)[C@H](OC)/C=C/C=C(\C)C2 [Conjugate 57]
- clearance [1, 4]: 318 mL/min
- half-life [1, 4]: ~1.8 h
- exposure (dose normalized AUC0-8 and Cmax) vs body surface area ([1]; patients, FIG. 1A and FIG. 1B): correlateds with body surface area (BSA)
- MTD ([2]; IV, every 3 week cycle, flat dose, previous clinical studies): 18 mg
- effect on efficacy of changing from flat doses to doses based on body surface area ([2]; patients): no negative effect on efficacy
- dose levels at which maximum benefit was observed [2, 5]: ≤ 8.8 mg/m^2
- dose levels at which the majority of toxicity was observed [2, 5]: greater than 8.8 mg/m^2
- stability in buffered solution [3]: most stability
